Data reported in patent publication US20020164620A1, “Method for identifying compounds modulating sister chromatid separation” (Boehringer Ingelheim International GmbH, priority 2001, published 2002).

Experiments:
human separase [1] = experiment: Rebinding of recombinant securin to mitotically activated separase immunoprecipitates; type: binding; conditions: separase activated in mitotic Xenopus extracts, mostly cleaved form
Description: (§1) 30 microliter beads were incubated with 40 μg bacterially expressed wildtype securin, destruction box deleted form of securin (Gmachl et al., 2000) or BSA diluted in XB+1 mM DTT for 40 min at RT. Subsequently the beads were washed with XB+1 mM DTT and with TBS+0.5 M NaCl+1 mM DTT+0.5% TWEEN20, followed by one wash with XB+1 mM DTT. To control the rebinding of securin an aliquot of 5 μl was taken per assay and subsequently analysed by immunoblotting with antibodies against separase and securin.
FIG. 1A: Separase immunoprecipitates (separase IP) obtained from Nocodazole arrested HeLa cells and bound by antibodies against the C-terminus of separase coupled to beads were activated in mitotic Xenopus egg extracts (separase IP^mitotic). Mitotically activated separase immunoprecipitates were either incubated in buffer, wildtype securin, destruction box deleted securin or in BSA. Aliquots were taken and analysed by immunoblotting with antibodies against separase and securin.
Target sequence in this assay (Q14674 1-1486 limits assumed): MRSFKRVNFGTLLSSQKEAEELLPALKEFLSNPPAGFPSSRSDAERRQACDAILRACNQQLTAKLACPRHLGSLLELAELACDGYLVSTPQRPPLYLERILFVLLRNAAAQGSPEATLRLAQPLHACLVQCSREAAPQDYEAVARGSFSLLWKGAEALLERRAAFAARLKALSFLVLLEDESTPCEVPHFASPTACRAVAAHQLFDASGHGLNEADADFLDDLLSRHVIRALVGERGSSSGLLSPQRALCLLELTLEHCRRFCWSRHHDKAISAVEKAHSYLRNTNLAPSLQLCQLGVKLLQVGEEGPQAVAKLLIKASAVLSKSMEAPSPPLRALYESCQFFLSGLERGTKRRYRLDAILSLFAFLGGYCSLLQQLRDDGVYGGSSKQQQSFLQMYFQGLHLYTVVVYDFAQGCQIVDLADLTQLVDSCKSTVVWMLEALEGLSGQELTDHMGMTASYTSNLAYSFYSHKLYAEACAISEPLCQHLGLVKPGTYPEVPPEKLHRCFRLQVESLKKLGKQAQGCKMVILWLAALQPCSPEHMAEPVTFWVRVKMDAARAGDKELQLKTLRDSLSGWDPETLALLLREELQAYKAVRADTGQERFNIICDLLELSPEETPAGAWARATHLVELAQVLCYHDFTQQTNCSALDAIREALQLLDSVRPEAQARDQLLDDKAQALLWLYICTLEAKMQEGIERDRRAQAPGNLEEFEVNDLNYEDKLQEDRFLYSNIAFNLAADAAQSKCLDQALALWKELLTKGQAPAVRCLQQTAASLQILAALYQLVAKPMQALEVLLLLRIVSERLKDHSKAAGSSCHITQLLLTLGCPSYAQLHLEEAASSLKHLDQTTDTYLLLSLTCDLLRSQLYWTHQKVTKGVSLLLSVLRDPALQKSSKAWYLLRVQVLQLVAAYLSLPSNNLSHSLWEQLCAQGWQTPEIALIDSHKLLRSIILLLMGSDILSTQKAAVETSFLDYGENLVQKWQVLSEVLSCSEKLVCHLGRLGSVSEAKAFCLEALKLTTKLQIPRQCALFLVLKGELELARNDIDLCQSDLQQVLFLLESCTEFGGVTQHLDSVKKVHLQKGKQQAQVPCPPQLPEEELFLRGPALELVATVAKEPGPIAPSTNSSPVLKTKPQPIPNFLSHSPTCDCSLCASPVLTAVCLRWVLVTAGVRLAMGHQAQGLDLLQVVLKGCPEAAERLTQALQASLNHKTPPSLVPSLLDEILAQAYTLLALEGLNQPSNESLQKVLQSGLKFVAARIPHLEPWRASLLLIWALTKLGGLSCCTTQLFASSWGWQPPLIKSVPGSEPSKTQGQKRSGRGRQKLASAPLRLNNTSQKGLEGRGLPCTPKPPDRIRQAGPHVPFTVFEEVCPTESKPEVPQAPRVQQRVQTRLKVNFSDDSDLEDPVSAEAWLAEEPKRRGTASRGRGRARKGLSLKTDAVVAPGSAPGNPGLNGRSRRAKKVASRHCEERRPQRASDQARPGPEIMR
Target sequence in this assay (Q14674 1536-2120 limits assumed): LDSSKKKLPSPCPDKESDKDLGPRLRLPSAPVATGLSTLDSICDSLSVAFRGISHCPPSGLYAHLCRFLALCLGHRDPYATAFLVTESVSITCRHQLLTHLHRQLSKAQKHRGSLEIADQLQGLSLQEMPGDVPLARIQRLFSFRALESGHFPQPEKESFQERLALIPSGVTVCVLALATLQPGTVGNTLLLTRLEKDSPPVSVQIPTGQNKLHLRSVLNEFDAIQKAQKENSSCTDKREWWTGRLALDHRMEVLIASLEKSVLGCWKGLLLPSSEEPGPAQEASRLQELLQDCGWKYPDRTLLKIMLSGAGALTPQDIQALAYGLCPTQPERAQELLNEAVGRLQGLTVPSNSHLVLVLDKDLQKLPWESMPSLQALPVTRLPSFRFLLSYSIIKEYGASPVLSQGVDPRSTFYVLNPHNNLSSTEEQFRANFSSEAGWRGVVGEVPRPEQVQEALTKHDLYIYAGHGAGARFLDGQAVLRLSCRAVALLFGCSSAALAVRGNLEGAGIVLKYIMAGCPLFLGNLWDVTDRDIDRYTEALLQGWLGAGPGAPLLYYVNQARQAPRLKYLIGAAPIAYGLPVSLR

human separase [2] = experiment: SCC1 in vitro cleavage assay; type: biochemical; conditions: substance added to mitotically activated separase immunoprecipitates before SCC1-myc reaction mix
Description: as §1
Target sequence in this assay (Q14674 1536-2120 limits assumed): as above
The beads were used for the SCC1 in vitro cleavage assay: 20 μl beads were mixed with 30 μl of the following SCC1 in vitro translation mix (SCC1 myc IVT+1 μl PLK-GST+0.3 μl […], 0.3 μl 100 mM ATP, 0.12 μl 250 mM EGTA, 13.78 μl XB+1 mM DTT) and incubated at 22° C. and 1200 rpm. 5 μl were taken per time point, the reaction was stopped by addition of SDS loading buffer. Samples were analyzed by immunoblotting with mouse monoclonal antibodies against myc (9E10).
(§2) B. Separase immunoprecipitates were incubated with 100 μM Biotin-SVEQGR-amk or with DMSO prior mitotic activation. Incubation for 10 minutes, 22° C. and 1000 rpm. After washing twice in XB+1 mM DTT the activation was performed in mitotic Xenopus egg extracts.
Interphase Xenopus egg extracts were driven into mitosis in the presence of 1 mM Biotin-SVEQGR-amk or DMSO. […]

human separase [3] = experiment: Covalent labelling of separase forms by biotin peptide (avidin blot); type: binding; conditions: recombinant securin bound to cleaved active separase, then human peptide inhibitor (FIG. 4D)
Description: as §2
Target sequence in this assay (Q14674 1536-2120 limits assumed): as above
Interphase Xenopus egg extracts were driven into mitosis in the presence of 1 mM Biotin-SVEQGR-amk or DMSO. Those mitotic Xenopus egg extracts were used to activate a batch of separase immunoprecipitates.
Biotin labeled peptides were detected via immunoblotting according to Faleiro et al., 1997.
C. […] After 10 min incubation at 22° C. and 1250 rpm beads were again washed and analyzed by immunoblotting.
FIG. 4B: Separase IPs (see A) were either preincubated with Biotin-SVEQGR-amk (preinc. with inh. peptide) or with DMSO (preinc. with DMSO), subsequently washed and aliquots were taken. […] All samples were analysed by immunoblotting with avidin.
FIG. 4D: Activated separase immunoprecipitates bound by antibodies against the C-terminus of separase to beads were first incubated with recombinant securin or, for control, with recombinant truncated cyclinB. […] Thereafter, the immunoprecipitates were again washed and analyzed by immunoblotting.

B1: WT-securin: human securin expressed in E. coli and purified, the wildtype protein (protein)
chain: MATLIYVDKENGEPGTRVVAKDGLKLGSGPSIKALDGRSQVSTPRFGKTFDAPPALPKATRKALGTVNRATEKSVKTKGPLKQKQPSFSAKKMTEKTVKAKSSVPASDDAYPEIEKFFPFNPLDFESFDLPEEHQIAHLPLSGVPLMILDEERELEKLFQLGPPSPVKMPSPPWESNLLQSPSSILSTLDVELPPVCCDIDI
- binding of securin to separase (human separase [1]): able to bind to separase
- SCC1 cleavage by separase (human separase [2]): no cleavage of SCC1 was detected
- binding of peptide inhibitors to the active site of separase (human separase [3]): prevented the binding of peptide inhibitors to the active site of separase
